The record followed here is USRE40831.

The assay concerns the target hepatitis B virus surface antigen, ad antigen (Chemicon Cat. No. AG 850) (hepatitis B virus). The assay can be described thus: competitive ELISA. In general terms: An ELISA detects its analyte on a solid surface through an enzyme-linked reagent.

B1: Ab19.79.5, human monoclonal antibody secreted by hybridoma cell line 19.79.5 (ECACC Accession No. 96052168) (antibody, human IgG1, V domains shown)
VH: QVQLVESGGGVVQPGGSLRLSCAPSGFVFRSYGMHWVRQTPGKGLEWVSLIWHDGSNRFYADSVKGRFTISRDNSKNTLYLQMNSLRAEDTAMYFCARERLIAAPAAFDLWGQGTLVTVSS
VL: SYVLTQPPSVSVAPGKTARISCGGNNIGTKNVHWYQQKPGQAPVLVVYADSDRPSGIPERFSGSNSGNTATLTISRVEVGDEADYYCQVWDSVSYHVVFGGGTTLTVLG
A word on the Kd: it is the equilibrium constant for the complex coming apart. Low readings indicate tighter binding, high ones weaker binding. B1 showed a Kd of 1.3 nM.
